From the nanobody polyreactivity screen of Harvey et al. (2022)

Assay: yeast display, Sf9 membrane polyspecificity reagent, FACS + sequencing; frameworks hold sequencing errors
Summary of the method: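 A nanobody's polyreactivity label depends on the gate it was sorted from. Yeast display cells were stained with 10% biotinylated, detergent-solubilized Sf9 membrane reagent for 1 hour at 4 °C, enriched on streptavidin microbeads and sorted by FACS. The low and high (top ~1%) gates were set on anti-HA fluorescence for expression and streptavidin fluorescence for reagent binding.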

With “QVQLVESGGGLVQAGGSLRLSCAASGSTFYGNAMVWYIQAPGKERELVAAIRWRGGRTYYADSVKGRFTNSRDNAKYTVYLKLNSLIPEDTAVYDCNALPGVSDTQYDRVGYWGQGTQVTVSS” the “polyreactivity (PSR sort gate)” value was “high polyreactivity”.
With “QVQLVESGGGLVQAGGSLRLSCAASGSTFYGNAMVWYRQAPGKERELVARITTSGSTYYADSVKGRFTISRDNAKNTVYLQMNSLKPEDTAVYYCAKRGYGPSIRYYYWGHGTQVTVSS” the “polyreactivity (PSR sort gate)” value was “high polyreactivity”.
For “QVQLVESGGGLVQAGGSLRLSCAASGSTFYGYAMGWYRQAPGKERELVAAISGGGSTNYADSVKGRFTISRDNAKNTVYLQMNSLKPEDTAVYYCAARTTVYRRYGRNYWGQGTQVTVSS”, the “polyreactivity (PSR sort gate)” value was “high polyreactivity”.
In the case of “QVQLVESGGGLVQAGGSLRLSCAASGSTFYGYAMGWYRQAPGKERELVAAISSGGRTKYADSVKGRFTISRDTAKNTVYLQMNSLKPEDTAVYYCYVSYLVYRWKFGWSMDYWGQGTQVTLSS”, the “polyreactivity (PSR sort gate)” value is reported as “low polyreactivity”.
For “QVQLVESGGGLVQAGGSLRLSCAASGSTFYGYAMGWYRQAPGKERELVAAISVRAGITYYADSVKGRFTISRDNAKNTVYLQMNSLKPEDTAVYYCAKDHWTTSYDEGDYWGQGTQVTVSS”, the “polyreactivity (PSR sort gate)” value was “low polyreactivity”.
With “QVQLVESGGGLVQAGGSLRLSCAASGSTFYGYAMGWYRQAPGKERELVAAISWSGASTYYADSVKGRFTISRDNAKNTVYLQMNSLKPDDTAVYYCNKRYRGYFNWPHGYWGQGTQVTVSS” the “polyreactivity (PSR sort gate)” value was “high polyreactivity”.
For “QVQLVESGGGLVQAGGSLRLSCAASGSTFYGYAQGWYRQAPRKERELVAAISRTGTTNYADSVKGRFTISRDNAKNTVYLQMNSLKPEVTAVYYCNVRGYEVWYPLAYDYWGQGTQVTVSS”, the “polyreactivity (PSR sort gate)” value was “high polyreactivity”.
With “QVQLVESGGGLVQAGGSLRLSCAASGSTFYGYTMGWYRQAPGKERELVAAITSGDSTYYADSVKGRFTISRDNAKNTVYLQINSLKPEDTAVYYCATDWDVEYYWTEYYYWGQGTQVTVSS” the “polyreactivity (PSR sort gate)” value was “high polyreactivity”.
In the case of “QVQLVESGGGLVQAGGSLRLSCAASGSTFYHNAMGWYRQAPGKERELVAAITTSGGSTYYADSVKGRFTISRDNAKNTVYLQMNSLKPEDTAVYYCNVYRPYLAPYDYWGQGTQVTVSS”, the “polyreactivity (PSR sort gate)” value is reported as “low polyreactivity”.
With “QVQLVESGGGLVQAGGSLRLSCAASGSTFYHNVMGWYLQAPGKERELVASIDTGDSTNYADSVKGRFTISRDNAKNTVYLQMNSLKPEDTAVYYCNADSYPALNKRGYDYWGQGTQVTVSS” the “polyreactivity (PSR sort gate)” value was “low polyreactivity”.
In the case of “QVQLVESGGGLVQAGGSLRLSCAASGSTFYINAMGWYRQAPGKERELVAAISWGGGSTYYADSVKGRFTISRDNAKNTVYLQMNSLKPEDTAVYYCAKLKGTQPNRYDYWGQGTQVTVSS”, the “polyreactivity (PSR sort gate)” value is reported as “low polyreactivity”.
For “QVQLVESGGGLVQAGGSLRLSCAASGSTFYINAMGWYRQAPGKERVLVAAISWSGGSTYYADSVKGRFTISRDNAKNTVYLQMNSLKPEDTAVYYCAADWYLGWSLDYDYWGQGTQVTVSS”, the “polyreactivity (PSR sort gate)” value was “low polyreactivity”.
In the case of “QVQLVESGGGLVQAGGSLRLSCAASGSTFYIYAMGWYRQAPGKERELVAAIDWNDGSTYYADSVKARFTISRDNAKNTVYLQMNSLKPEDTAVYYCAAAIYIYRGGTYDYWGQGTQVTVSS”, the “polyreactivity (PSR sort gate)” value is reported as “high polyreactivity”.
For “QVQLVESGGGLVQAGGSLRLSCAASGSTFYIYAMGWYRQAPGKERELVAAISSVGRTSYADSVKGRFTISRDNAKNTVYLQMNSLKPEDTAVYYCAADKVDDSSYVPRTVFRYESDYWGQGTQVTVSS”, the “polyreactivity (PSR sort gate)” value was “low polyreactivity”.
For “QVQLVESGGGLVQAGGSLRLSCAASGSTFYIYAMGWYRQAPGKERELVAAITSRGTITSYADSVKGRFTISRDNAKNTVYLQMNSLKPEDTAVYYCAADYWQDGIAYWYDYWGQGTQVTVSS”, the “polyreactivity (PSR sort gate)” value was “low polyreactivity”.
With “QVQLVESGGGLVQAGGSLRLSCAASGSTFYIYAMGWYRQAPGKERELVAAITWRGGGTYYADSVKGRFTISRDNAKNTVYLQMNSLKPEDTAVYYCNADYPRSHYQYPYNYWGQGTQVTVSS” the “polyreactivity (PSR sort gate)” value was “high polyreactivity”.
For “QVQLVESGGGLVQAGGSLRLSCAASGSTFYIYAMGWYRQAPGKERELVARISGSRGSTYYADSVKGRFTISRDNAKNTVYLQMNSLKPEDTAVYYCAADDIYKYYQYYALPSYRYDYWGQGTQVTVSS”, the “polyreactivity (PSR sort gate)” value was “low polyreactivity”.
In the case of “QVQLVESGGGLVQAGGSLRLSCAASGSTFYIYGMGWYRQAPGKERELVAAISSSGGRTNYADSVKGRFTISRDNAKNTVYLQMNSLKPEDTAVYYCAARRWQGYAGWYDYWGQGTQVTVSS”, the “polyreactivity (PSR sort gate)” value is reported as “high polyreactivity”.
With “QVQLVESGGGLVQAGGSLRLSCAASGSTFYIYTMGWYRQAPGKERELVATISWDGGNTYYADSVKGRFTISRDNAKNTVYLQMNSLKPEDTAVYYCARDSSIWSHGSWYDYWGQGTQVTVSS” the “polyreactivity (PSR sort gate)” value was “low polyreactivity”.
With “QVQLVESGGGLVQAGGSLRLSCAASGSTFYKNAMGWYIQAPGKERELVAAISGSGGRTYYADSVKGRFTISRDTAKNTVYLQMNSLKPEDTAVYYCNAARAYYSLYYGLDYWGQGTQVTVSS” the “polyreactivity (PSR sort gate)” value was “high polyreactivity”.
In the case of “QVQLVESGGGLVQAGGSLRLSCAASGSTFYKYAMGWYRPAPGKERELVATINISGGSTSYADSVKGRFTISRDNAKNTVYLQMNSLKPQDTAVYYSNADAFYLGHDYWGQGTEVTVSS”, the “polyreactivity (PSR sort gate)” value is reported as “high polyreactivity”.
With “QVQLVESGGGLVQAGGSLRLSCAASGSTFYKYAMGWYRQAPGKERELVAAISASGGSTYYADSVKVRFTISRDNAKNTVYLQMNSLNPEDTAVYYCAKASAYSAYADHDYYWGQGTQVTVSS” the “polyreactivity (PSR sort gate)” value was “high polyreactivity”.
In the case of “QVQLVESGGGLVQAGGSLRLSCAASGSTFYLNALGGYRQAPGKEREFVAAIDTGTGTYYADSVKGRFTISRDNAKNTVYLQMNRLKPEDTAVYYCAKDDLLVVRNVWFDYWGQGTQVTVSS”, the “polyreactivity (PSR sort gate)” value is reported as “low polyreactivity”.
With “QVQLVESGGGLVQAGGSLRLSCAASGSTFYLNAMGWYRQAPGKERELVAAINSGDSTNYADSVKGRFTISRDNAKNSVYLQMNSLKPEDNAVYYCARDRYPSEGDYWGQGTQVTVSS” the “polyreactivity (PSR sort gate)” value was “low polyreactivity”.
For “QVQLVESGGGLVQAGGSLRLSCAASGSTFYLNAMGWYRQAPGKERELVASITWSGGRTYYADSVKGRFTISRDNAKNTVYLQMNSLKPEDTAVYYCAADPVWGRYIKYDYWGQGTQVTVSS”, the “polyreactivity (PSR sort gate)” value was “high polyreactivity”.
In the case of “QVQLVESGGGLVQAGGSLRLSCAASGSTFYLNAMGWYRQEPGKERELVAAISSGGRTYYADSVKGRFTISRDNAKNTVYFQKNSLKPEDTAVYYCAATRLYWKIFYGDGDYWGQGTQVTVSS”, the “polyreactivity (PSR sort gate)” value is reported as “high polyreactivity”.
For “QVQLVESGGGLVQAGGSLRLSCAASGSTFYLNTMGWYRQAPGKERELVASISRSGGTTYYADSVKGRFTISRDNAKNTVYLQMNSLKPEDTAVYYCAKRYYFTHAYSRTFYYWGQGTQVTVSS”, the “polyreactivity (PSR sort gate)” value was “high polyreactivity”.
For “QVQLVESGGGLVQAGGSLRLSCAASGSTFYLYAMGWYRQAPGKERELVAAISWSDDTTYYADSVKGRFTISRDNAKNTVYLQMNSLKPEDTAVYYCATVPHYYYDYDYWGQGTQVTVSS”, the “polyreactivity (PSR sort gate)” value was “low polyreactivity”.
With “QVQLVESGGGLVQAGGSLRLSCAASGSTFYLYAMGWYRQAPGKERELVAAITRGGTTNYADSVKGRFTISRDNAKNTVYLQMNSLKPEDTAVYYCAKEVTTLLSLYEIVDRDYWGQGTQVTVSS” the “polyreactivity (PSR sort gate)” value was “low polyreactivity”.
For “QVQLVESGGGLVQAGGSLRLSCAASGSTFYLYPMGWLRQAPGKERELVAAIRQSGGSTYYADSVKGRFTISRDNAKNTVYLQMNSLKPEDTAVYYCAARPSYRLGQRYYYWGQGTQVTVSS”, the “polyreactivity (PSR sort gate)” value was “high polyreactivity”.
With “QVQLVESGGGLVQAGGSLRLSCAASGSTFYLYTMGWYIQAPGKERELVAAISPSGGSTRYADSVKGRFTISRDNAKNTVYLQMNSLKPEDTAVYYCAARSTVYPRPHERDYWGQGTQVTVSS” the “polyreactivity (PSR sort gate)” value was “high polyreactivity”.
With “QVQLVESGGGLVQAGGSLRLSCAASGSTFYNNAMGWYRQAPGKERELVAAISNVSTYYADSVKGRFTISRDNAKNTVYLQMNSLKPEDTAVYYCAARGLLWYYSWRYYYWGQGTQVTVSS” the “polyreactivity (PSR sort gate)” value was “low polyreactivity”.
With “QVQLVESGGGLVQAGGSLRLSCAASGSTFYNNAMGWYRQAPGKERELVAAISNVSTYYADSVKGRFTISRDNAKNTVYLQMNSLKPEDTAVYYCAARVLLWYYSWRYYYWGQGTQVTVSS” the “polyreactivity (PSR sort gate)” value was “low polyreactivity”.
For “QVQLVESGGGLVQAGGSLRLSCAASGSTFYNNAMGWYRQAPGKERELVAAITASGGRTYYADSVKGRFTISRDNAKNTVYLQMNSLKPEDTAVYYCAADGHAGYPIDEYYYWGQGTQVTVSS”, the “polyreactivity (PSR sort gate)” value was “high polyreactivity”.
With “QVQLVESGGGLVQAGGSLRLSCAASGSTFYNNAMGWYRQAPGKERELVATISASSTSTYYADSVKGRFTISRDNAKNTVYLQMNSLKPEDTAVYYCAKDYVHGSTYGYYWYGYDYWAQGTQVTVSS” the “polyreactivity (PSR sort gate)” value was “low polyreactivity”.
With “QVQLVESGGGLVQAGGSLRLSCAASGSTFYNYAMGWYRQAPGKERELVAAISIGGSTYYADSVKGRFTISRDNAKNTVYLQMNSLKPEDTAVYYCAADDGDFYPIDDYWGQGTQVTVSS” the “polyreactivity (PSR sort gate)” value was “low polyreactivity”.
For “QVQLVESGGGLVQAGGSLRLSCAASGSTFYNYAMGWYRQAPGKERELVASITWNGGSTYYADSVKGRFTISRDNAKNTVYLQMNSLKPEDTAVYYCAAEWTWTYPYDYWGQGTQVTVSS”, the “polyreactivity (PSR sort gate)” value was “low polyreactivity”.
In the case of “QVQLVESGGGLVQAGGSLRLSCAASGSTFYPNAMGWYRQAPGKERELVAAISRGTRTKYADSVKGRFTISRDNAKNTVYLQMNSLKPEDTAVYYCAADTGTGLDWGQGTQVTVSS”, the “polyreactivity (PSR sort gate)” value is reported as “high polyreactivity”.
With “QVQLVESGGGLVQAGGSLRLSCAASGSTFYPNAMGWYRQAPGKERELVADISYSGGRTYYADSVKGRFTISRDNAKNTVYLQMNSLKPEYTAVYYCAARKVTYHYQWMDYWGQGTQVTVSS” the “polyreactivity (PSR sort gate)” value was “low polyreactivity”.
In the case of “QVQLVESGGGLVQAGGSLRLSCAASGSTFYPYAMGWYRQAPGKERELVAAISLSDTITYYADSVKGRFTISRDNAKNTVYLQMNSLKPEDTAVYYCAAETPGFVLYEYWGQGTQVTVSS”, the “polyreactivity (PSR sort gate)” value is reported as “high polyreactivity”.
With “QVQLVESGGGLVQAGGSLRLSCAASGSTFYPYAMGWYRQAPGKERELVADITNSGSTYYADSVKGRFTISRDNAKNTVYLQMNCLKPEDTAVYYCSASVYSVADYYYWGQGTQVTVSS” the “polyreactivity (PSR sort gate)” value was “low polyreactivity”.
With “QVQLVESGGGLVQAGGSLRLSCAASGSTFYPYAMGWYRQAPGKERELVAGIRSGGSTNYADSVKGRFTISRDNAKNTVYLQMNSLKPEDTAVYYCAARRWRTQDRSHFDYWGQGTQVTVSS” the “polyreactivity (PSR sort gate)” value was “low polyreactivity”.
With “QVQLVESGGGLVQAGGSLRLSCAASGSTFYPYAMGWYRQAPGKERELVASISSRGGTTYYADSVKGRFTISRDNAKNTVYLQMNSLKPEDTAVYYCAARLTYAERKWPTKYYWGQGTQVTVSS” the “polyreactivity (PSR sort gate)” value was “high polyreactivity”.
